Among the data in PMC4868133 are stoichiometry N values, retold here.

The term stoichiometry N denotes the number of molecules, sites or subunits per partner or assembly.

This assay deals with MUC2 VWD3 domain alone, produced as a shorter recombinant protein without the VWD1D2 domains (human).

Consider “MUC2 VWD3 domain alone, produced as a shorter recombinant protein without the VWD1D2 domains (domain or fragment)”, for which the stoichiometry N is 3.
